From patent US20110274702A1 (INSTITUTE FOR RESEARCH IN BIOMEDICINE, published 2011) come the findings set out here.

Holding throughout (assay): cell-based or functional assay
Test [1] addresses H5N1 A/VN/1203/04 HA on pseudotyped virus (influenza A virus H5N1 A/VN/1203/04).
Test [2] addresses H7N1 A/ck/FPV/Ro/34 HA on pseudotyped virus (influenza A virus H7N1 …, UniProt P03459 19-563).
For test [3], the target named is HA A/VN/1194/04 (H5) (influenza A virus H5 A/VN/1194/04).

B1: FI28 variant 1 (antibody, V domains shown)
VH: EVQLVESGGGAVQPGESLKLSCAASGFTFSNYGMHWVRQAPGKGLEWVAVISYDGSNKYYADSVKGRFTISRDNSKDTLYLQMNSLRAEDTALFYCAKERPLRLLRYFDWLSGGANDYWGQGTLVTVSS
VL: DIVMTQSPDSLAVSLGERATINCKSSQSVLYSSNNKNYLAWYQQKPGQPPKLLIDWASTRESGVPDRFSGSGSGTDFTLTISNLQVEDVAVYYCQQYYRSPSFGQGTKLEIK
Regarding B1, in test [1], the “Neutralization of HA-pseudotypes (IC90, µg/ml)” value was found to be 0.02 µg/mL.

B2: FI6 variant 2 (antibody, V domains shown)
VH: QVQLVQSGGGVVQPGRSLRLSCVASGFTFSTYAMHWVRQAPGRGLEWVAVISYDGNYKYYADSVKGRFSISRDNSNNTLHLEMNTLRTEDTALYYCAKDSQLRSLLYFEWLSQGYFDPWGQGTLVTVTS
VL: DIQMTQSPDSLAVSLGARATINCKSSQSVTFNYKNYLAWYQQKPGQPPKVLIYWASARESGVPDRFSGSGSGTDFTLTISSLQAEDVAVYYCQQHYRTPPTFGQGTKVEIK
B2: in test [2], the “Neutralization H7 A/ck/FPV Rostock/34 pseudovirus, IC50” value is 0.02 µg/mL. In test [3], the “Neutralization H5 A/VN/1194/04 pseudovirus, IC50” value was 0.0054 µg/mL.

B3: FI6 variant 3 (antibody, V domains shown)
VH: QVQLVESGGGVVQPGRSLRLSCAASGFTFSTYAMHWVRQAPGKGLEWVAVISYDANYKYYADSVKGRFTISRDNSKNTLYLQMNSLRAEDTAVYYCAKDSQLRSLLYFEWLSQGYFDYWGQGTLVTVSS
VL: not shown
Regarding B3, the “Neutralization H7 A/ck/FPV Rostock/34 pseudovirus, IC50” value in test [2] amounted to 0.0274 µg/mL. In addition, the “Neutralization H5 A/VN/1194/04 pseudovirus, IC50” value in test [3] turned out to be 0.0035 µg/mL.
